Data as given in PMC7515726.

Experiments:
Assay in all cases: affinity purification with mass spectrometry
[1] = molecular target: Nuc2, disk patch 2 mutant nucleosome (hH2A.Dx2, hH2B.Cx8), biotinylated 185 bp 601 DNA (human) (UniProt Q71DI3)
[2] = molecular target: Nuc1, acidic patch mutant nucleosome (hH2A.Dx10), biotinylated 185 bp 601 DNA (human) (UniProt P62807)
[3] = molecular target: Nuc3, disk patch 3 mutant nucleosome (hH3.2x10, hH4x24, hH2B.Cx9), biotinylated 185 bp 601 DNA (human) (UniProt P20671)

Binder	fold decrease in binding vs wild-type nucleosome [1]	fold decrease in binding vs wild-type nucleosome [2]	fold decrease in binding vs wild-type nucleosome [3]
RCC1 (regulator of chromatin condensation) (natural protein) MPPKRIAKRRSPPEDAIPKSKKVKVSHRSHNTEPGLVLTLGQGDVGQLGLGESVLERKKPALVPLLQDVVQAEAGGMHTVCLSQSGQVYSFGCNDEGALGRDTSVEGSEMVPGKVELQEKVVQVSAGDSHTAALTEDGRVFLWGSFRDNNGVIGLLEPMKKSMVPVQVQLDAPVVKVASGNDHLVMLTNDGDLYTLGCGEQGQLGRVPELFANRGGRQGLGRLLVPRCVLLKSRGTRGRVRFQDAFCGAYFTFAISREGHVYGFGLSNYHQLGTPGTGSCFIPQNLTSFKNSTKSWVGFSGGQHHTVCMDSEGKAYSLGRAEYGRLGLGEGAEEKSIPTLISRLPVVSSVACGASVGYAVSKDGRVFAWGMGTNYQLGTGQDEDAWSPVEMTGKQLENRVVLTVSSGGQHTVLLVKDQAQS	3.1 fold	22 fold	2.1 fold
cohesin complex protein SMC1A (natural protein) MGFLKLIEIENFKSYKGRQIIGPFQRFTAIIGPNGSGKSNLMDAISFVLGEKTSNLRVKTLRDLIHGAPVGKPAANRAFVSMVYSEEGAEDRTFARVIVGGSSEYKINNKVVQLHEYSEELEKLGILIKARNFLVFQGAVESIAMKNPKERTALFEEISRSGELAQEYDKRKKEMVKAEEDTQFNYHRKKNIAAERKEAKQEKEEADRYQRLKDEVVRAQVQLQLFKLYHNEVEIEKLNKELASKNKEIEKDKKRMDKVEDELKEKKKELGKMMREQQQIEKEIKEKDSELNQKRPQYIKAKENTSHKIKKLEAAKKSLQNAQKHYKKRKGDMDELEKEMLSVEKARQEFEERMEEESQSQGRDLTLEENQVKKYHRLKEEASKRAATLAQELEKFNRDQKADQDRLDLEERKKVETEAKIKQKLREIEENQKRIEKLEEYITTSKQSLEEQKKLEGELTEEVEMAKRRIDEINKELNQVMEQLGDARIDRQESSRQQRKAEIMESIKRLYPGSVYGRLIDLCQPTQKKYQIAVTKVLGKNMDAIIVDSEKTGRDCIQYIKEQRGEPETFLPLDYLEVKPTDEKLRELKGAKLVIDVIRYEPPHIKKALQYACGNALVCDNVEDARRIAFGGHQRHKTVALDGTLFQKSGVISGGASDLKAKARRWDEKAVDKLKEKKERLTEELKEQMKAKRKEAELRQVQSQAHGLQMRLKYSQSDLEQTKTRHLALNLQEKSKLESELANFGPRINDIKRIIQSREREMKDLKEKMNQVEDEVFEEFCREIGVRNIREFEEEKVKRQNEIAKKRLEFENQKTRLGIQLDFEKNQLKEDQDKVHMWEQTVKKDENEIEKLKKEEQRHMKIIDETMAQLQDLKNQHLAKKSEVNDKNHEMEEIRKKLGGANKEMTHLQKEVTAIETKLEQKRSDRHNLLQACKMQDIKLPLSKGTMDDISQEEGSSQGEESVSGSQRTSSIYAREALIEIDYGDLCEDLKDAQAEEEIKQEMNTLQQKLNEQQSVLQRIAAPNMKAMEKLESVRDKFQETSDEFEAARKRAKKAKQAFEQIKKERFDRFNACFESVATNIDEIYKALSRNSSAQAFLGPENPEEPYLDGINYNCVAPGKRFRPMDNLSGGEKTVAALALLFAIHSYKPAPFFVLDEIDAALDNTNIGKVANYIKEQSTCNFQAIVISLKEEFYTKAESLIGVYPEQGDCVISKVLTFDLTKYPDANPNPNEQ		1.35 fold	
VRK1 kinase (enzyme) MPRVKAAQAGRPGPAKRRLAEQFAAGEVLTDMSRKEWKLGLPIGQGGFGCIYLADTNSSKPVGSDAPCVVKVEPSDNGPLFTELKFYQRAAKPEQIQKWIRTHKLKYLGVPKYWGSGLHDKNGKSYRFMIMDRFGSDLQKIYEANAKRFSRKTVLQLSLRILDILEYIHEHEYVHGDIKASNLLLSHKNPDQVYLVDYGLAYRYCPDGVHKEYKEDPKRCHDGTLEFTSIDAHKGVAPSRRGDLEILGYCMIQWLSGCLPWEDNLKDPNYVRDSKIRYRDNVAALMEKCFPEKNKPGEIAKYMESVKLLEYTEKPLYQNLRDILLQGLKAIGSKDDGKLDFSAVENGSVKTRPASKKRKKEAEESAVCAVEDMECSDTQVQEAAQTRSVESQGAIHGSMSQPAAGCSSSDSSRRQQHLGLEQDMLRLDRRGSRTRKKAQK		1.61 fold	
OGT O-GlcNAc transferase (enzyme) MASSVGNVADSTEPTKRMLSFQGLAELAHREYQAGDFEAAERHCMQLWRQEPDNTGVLLLLSSIHFQCRRLDRSAHFSTLAIKQNPLLAEAYSNLGNVYKERGQLQEAIEHYRHALRLKPDFIDGYINLAAALVAAGDMEGAVQAYVSALQYNPDLYCVRSDLGNLLKALGRLEEAKACYLKAIETQPNFAVAWSNLGCVFNAQGEIWLAIHHFEKAVTLDPNFLDAYINLGNVLKEARIFDRAVAAYLRALSLSPNHAVVHGNLACVYYEQGLIDLAIDTYRRAIELQPHFPDAYCNLANALKEKGSVAEAEDCYNTALRLCPTHADSLNNLANIKREQGNIEEAVRLYRKALEVFPEFAAAHSNLASVLQQQGKLQEALMHYKEAIRISPTFADAYSNMGNTLKEMQDVQGALQCYTRAIQINPAFADAHSNLASIHKDSGNIPEAIASYRTALKLKPDFPDAYCNLAHCLQIVCDWTDYDERMKKLVSIVAEQLEKNRLPSVHPHHSMLYPLSHGFRKAIAERHGNLCLDKINVLHKPPYEHPKDLKLSDGRLRVGYVSSDFGNHPTSHLMQSIPGMHNPDKFEVFCYALSPDDGTNFRVKVMAEANHFIDLSQIPCNGKAADRIHQDGIHILVNMNGYTKGARNELFALRPAPIQAMWLGYPGTSGALFMDYIITDQETSPAEVAEQYSEKLAYMPHTFFIGDHANMFPHLKKKAVIDFKSNGHIYDNRIVLNGIDLKAFLDSLPDVKIVKMKCPDGGDNPDSSNTALNMPVIPMNTIAEAVIEMINRGQIQITINGFSISNGLATTQINNKAATGEEVPRTIIVTTRSQYGLPEDAIVYCNFNQLYKIDPSTLQMWANILKRVPNSVLWLLRFPAVGEPNIQQYAQNMGLPQNRIIFSPVAPKEEHVRRGQLADVCLDTPLCNGHTTGMDVLWAGTPMVTMPGETLASRVAASQLTCLGCLELIAKSRQEYEDIAVKLGTDLEYLKKIRGKVWKQRISSPLFNTKQYTMELERLYLQMWEHYAAGNKPDHMIKPVEVTESA		1.69 fold	
tyrosine-protein kinase BAZ1B (enzyme) MAPLLGRKPFPLVKPLPGEEPLFTIPHTQEAFRTREEYEARLERYSERIWTCKSTGSSQLTHKEAWEEEQEVAELLKEEFPNWYEKLVLEMVHHNTASLEKLVDSAWLEIMTKYAVGEECDFEVGKEKMLKVKIVKIHPLEKVDEEAVEKKSDGACDSPSSDKENSSQMAQDLQKKETVVKEDEGRRESINDRARRSPRKLPTSLKKGERKWAPPKFLPHKYDVKLQNEDKIISNVPADSLIRTERPPNKEILRYFIRHNALRAGTGENAPWVVEDELVKKYSLPSKFSDFLLDPYKYMTLNPSTKRRNTGSPDRKPSKKPKRDSSSLSSPLNPKLWCHVHLEKSLNGPPLKVKNSKNSKSPEEHLEGVMKIMSPNNNKLHSFHIPKKGPAAKKPGKHSDKPLKAKGRGKGILNGQKSTGNSKSPSKCVKTPKTKMKQMTLLDMAKGTQKMTRTPRSSGGVPRSSGKPHKHLPPAALHLIAYYKENKDKEDKKSALSCVISKTARLLSNEDRARLPEELRALVQKRYELLEHKKRWASMSEEQRKEYLKKKRQELKERLREKAKERREREMLERLEKQKRFEDQELGGRNLPAFRLVDTPEGLPNTLFGDVALVVEFLSCYSGLLLPDAQYPITAVSLMEALSADKGGFLYLNRVLVILLQTLLQDEIAEDYGELGMKLSEIPLTLHSVSELVRLCLRRCDVQEDSEGSETDDNKDSTPFEDNEVQDEFLEKLETSEFFELTSEEKLRILTALCHRILMTYSVQDHMETRQQVSAELWKERLAVLKEENDKKRAEKQKRKEMEARNKENGKEENVLGKVDRKKEIVKIEQQVEVEADDMISAVKSRRLLSMQAKRKREIQERETKVRLEREAEEERMRKHKAAAEKAFQEGIAKAKLVLRRTPIGTDRNHNRYWLFSNEVPGLFIEKGWVHNSIDYRFKHHRKDHSNLPDDDYCPRSKKANLGKNASVNAHHGPALEAVETTVPKQGQNLWFLCDSQKELDELLSCLHPQGIRESQLKERLEKRYQEITHSIYLARKPNLGLKSCDGNQELLNFLRSDLIEVATRLQKGGLGYMEGTSEFEARVISLEKLKDFGECVIALQASVIKKFLQGFMAPKQKKRKLQSEDSTKSEEVDEEKKMVEEAKVASALEKWKTAIREAQTFSRMHVLLGMLDACIKWDMSAENARCKVCRKKGEDDKLILCDECNKAFHLFCLRPALYEVPDGEWQCPACQPPTARRNSRGRNYTEESTSEGSEGDESGEEEEEEEEEEEEEEDYEVAGLRLRPRKTIRGKQSVIPAARPGRPPGKKSHPARRSRPKDDPEVDDLVLQTKRISRRQSLELQKCEDILHKLVKYRFSWPFREPVTRDEAEDYYDVIEHPMDFQTIQNKCSCGNYRSVQEFLTDMKQVFANAELYNCRGSHVLSCMEKTEQCLLALLQKHLPGHPYVRRKRRKFPDRLADDEGDSDSESVGQSRGRRQKK		1.94 fold	
